# Data published in patent US20120309692A1.
# Biological target: recombinant human glandular kallikrein 2 (hK2) (human) (UniProt P20151)
# Experiment: cell-based or functional assay
"hK2 Activity (%) of inhibitor-free control, inhibitor at 0.8 µM","hK2 Activity (%) of inhibitor-free control, inhibitor at 0.016 µM","hK2 Activity (%) of inhibitor-free control, inhibitor at 0.08 µM","hK2 Activity (%) of inhibitor-free control, inhibitor at 4 µM",Binder
100%,–,–,–,"α1-antichymotrypsin (ACT) (protein, human, UniProt P01011 24-423, looked up) HPNSPLDEENLTQENQDRGTHVDLGLASANVDFAFSLYKQLVLKAPDKNVIFSPLSISTALAFLSLGAHNTTLTEILKGLKFNLTETSEAEIHQSFQHLLRTLNQSSDELQLSMGNAMFVKEQLSLLDRFTEDAKRLYGSEAFATDFQDSAAAKKLINDYVKNGTRGKITDLIKDLDSQTMMVLVNYIFFKAKWEMPFDPQDTHQSRFYLSKKKWVMVPMMSLHHLTIPYFRDEELSCTVVELKYTGNASALFILPDQDKMEEVEAMLLPETLKRWRDSLEFREIGELYLPKFSISRDYNLNDILLQLGIEEAFTSKADLSGITGARNLAVSQVVHKAVLDVFEEGTEASAATAVKITLLSALVETRTIVRFNRPFLMIIVPTDTQNIFFMSKVTNPKQA"
–,50%,0%,–,"protein C inhibitor (PCI) (protein, UniProt P05154 20-406, looked up) HRHHPREMKKRVEDLHVGATVAPSSRRDFTFDLYRALASAAPSQSIFFSPVSISMSLAMLSLGAGSSTKMQILEGLGLNLQKSSEKELHRGFQQLLQELNQPRDGFQLSLGNALFTDLVVDLQDTFVSAMKTLYLADTFPTNFRDSAGAMKQINDYVAKQTKGKIVDLLKNLDSNAVVIMVNYIFFKAKWETSFNHKGTQEQDFYVTSETVVRVPMMSREDQYHYLLDRNLSCRVVGVPYQGNATALFILPSEGKMQQVENGLSEKTLRKWLKMFKKRQLELYLPKFSIEGSYQLEKVLPSLGISNVFTSHADLSGISNHSNIQVSEMVHKAVVEVDESGTRAAAATGTIFTFRSARLNSQRLVFNRPFLMFIVDNNILFLGKVNRP"
–,–,100%,89%,"PSTI (protein, UniProt P00995 24-79, looked up) DSLGREAKCYNELNGCTKIYDPVCGTDGNTYPNECVLCFENRKRQTSILIQKSGPC"
